Experimental data taken from the supplement of paper PMC12042874.
± gives the uncertainty stated by the source.

Assay: amyloid nucleation score (Sup35N fusion, yeast selection) (log enrichment); library NNK2; higher = more nucleation; inactive = no reads after selection
In short: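 Using DiMSum, nucleation scores were taken as the log enrichment of output over input reads, centred on the mode score of non-aggregating sequences. The input and output reads came from Illumina sequencing of plasmid inserts, with sequences under 100 input reads excluded. The yeast were psi-negative, expressed Sup35N fused to peptides of 20 random codons, were induced with 100 μM copper sulfate for 24 hours, and were grown 7 days at 30°C on medium lacking adenine and uracil.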
With FLFGLSIMLLNKEPGRCFRG the amyloid nucleation score was 5.23 ± 0.097. FLGEAHFI showed an amyloid nucleation score of 0.078 ± 0.4. With FLGLTDWRVDYCSEWQGFAQ the amyloid nucleation score was -0.199 ± 1.1. For FLIFDRSKCCCVDTRGSGGT, the amyloid nucleation score was “inactive”. With FLIVPKILNICL the amyloid nucleation score was 7.746 ± 0.077. For FLKYSDKQHAVNVGLKVTAQ, the amyloid nucleation score was 0.094 ± 0.74. FLLDCN gave an amyloid nucleation score of 2.56 ± 0.15. In the case of FLLECSWFCVYTIGFYYRNI, the amyloid nucleation score is reported as “inactive”. For FLLHVCVADKVGVTSIHTCC, the amyloid nucleation score was -0.181 ± 0.35. Work on FLLSVGSHCMPVHEYGMTNA yielded an amyloid nucleation score of 0.445 ± 0.56. With FLMGVPEIFFPLVVSDYMYV the amyloid nucleation score was “inactive”. With FLRNWGTAWLVGFNSAKFIC the amyloid nucleation score was -0.955 ± 0.63. For FLSRIYESLSTVI, the amyloid nucleation score was “inactive”. FLSSGFCRTDFVRSIILYGP gave an amyloid nucleation score of -1.43 ± 0.55. FMEYCSVLLFCLVMARLSGS gave an amyloid nucleation score of -0.012 ± 1.1. Substance FMITWGINRS has an amyloid nucleation score of 4.02 ± 0.043. For FMLAHVYVNV, the amyloid nucleation score was -1.01 ± 0.78. Work on FMRMALAGPDKF yielded an amyloid nucleation score of -0.738 ± 1.1. FMSFVYLHVPSANTCI gave an amyloid nucleation score of 3.83 ± 0.045. For FMSGRESAVCLFKNFSVLRS, the amyloid nucleation score was 2.76 ± 0.084. FMSMLSCQAKTNLPMYATHM showed an amyloid nucleation score of -0.091 ± 0.79. FMTSWTVYSSRAYLHENVGT showed an amyloid nucleation score of 1.08 ± 0.37. With FMVILSGYIVL the amyloid nucleation score was 0.429 ± 0.66. Work on FMVWWFTIRVPEDCYQP yielded an amyloid nucleation score of -0.5 ± 0.39. In the case of FMYHSYSGRPNNHAIGKHFR, the amyloid nucleation score is reported as -0.405 ± 0.49. In the case of FMYWLGCYIRLLCDNLKQRG, the amyloid nucleation score is reported as -0.979 ± 0.49. FNAIYIKFTGRFSLTRDNRC gave an amyloid nucleation score of 1.73 ± 0.21. For FNDGTQKSTLACVRNKYRVY, the amyloid nucleation score was 0.633 ± 0.57. With FNGVIFNGSSVNYYPFAHSF the amyloid nucleation score was 5.035 ± 0.036. For FNHYQ, the amyloid nucleation score was 0.419 ± 0.36. Work on FNMDGYGRTGVRPFCRYVLN yielded an amyloid nucleation score of 0.333 ± 0.61. Substance FNTGSSMLLLIRVMVGKFGG has an amyloid nucleation score of -1.57 ± 1.1. Work on FNVSYSISMMLKRGVCAHCW yielded an amyloid nucleation score of 6.038 ± 0.034. In the case of FNWVEWLFFSMAFKLLVESR, the amyloid nucleation score is reported as “inactive”. With FPCRGLGGVLW the amyloid nucleation score was 1.97 ± 0.14. In the case of FPGRFRGKSLEKRMVM, the amyloid nucleation score is reported as 0.721 ± 0.46. Substance FPIFKHDWLFYWCTPSIKGR has an amyloid nucleation score of -1.06 ± 0.31. Substance FPNKITVIPSHTSRDNVNTL has an amyloid nucleation score of 0.261 ± 0.49. For FPRDILVS, the amyloid nucleation score was -0.13 ± 0.76. Substance FPYIFIWFYGSVGLWRRETL has an amyloid nucleation score of 0.127 ± 0.79. Substance FQFRCCTM has an amyloid nucleation score of 9.232 ± 0.024. With FQMYTISLRRLVNNKSYARV the amyloid nucleation score was 0.319 ± 0.8. Substance FQSVLCYE has an amyloid nucleation score of -0.708 ± 0.54. With FQWQLMVFSADEFQNMAHMI the amyloid nucleation score was 0.182 ± 0.79. With FQYENNVDNG the amyloid nucleation score was -1.75 ± 0.62. Work on FRAFLQITLILNCGSSASDV yielded an amyloid nucleation score of 3.45 ± 0.11. FRCAE gave an amyloid nucleation score of 3.84 ± 0.091. FRCLTSSANISISTVWYVGH showed an amyloid nucleation score of 4.61 ± 0.09. For FRDCYCRVVAPYDLHFVCTW, the amyloid nucleation score was 0.573 ± 0.15. With FRGDILRFL the amyloid nucleation score was “inactive”. Work on FRGGSCYIVVWA yielded an amyloid nucleation score of 6.573 ± 0.04. FRGIGWAC showed an amyloid nucleation score of 0.907 ± 0.47. In the case of FRGITASYEPIGGARMSARE, the amyloid nucleation score is reported as -0.001 ± 0.62. In the case of FRGLYRARNGVIKRMGLGWH, the amyloid nucleation score is reported as 0.645 ± 0.47. FRGTCYMAIVDYLCNTFEGP gave an amyloid nucleation score of 1.37 ± 0.11. Work on FRIGFVFCVSYCRECRN yielded an amyloid nucleation score of 0.065 ± 1.1. Substance FRLRMRSGYSARLSRFFCPL has an amyloid nucleation score of 2.51 ± 0.077. Work on FRMWGLC yielded an amyloid nucleation score of 0.43 ± 0.36. FRSVFDKFLRYVFSFDVY gave an amyloid nucleation score of -0.984 ± 0.76. With FRVMQNFHQSYGHYKWVFHF the amyloid nucleation score was 5.57 ± 0.057. FRWCKRMGLCNLVNDLGCDW showed an amyloid nucleation score of 0.446 ± 0.64. Substance FRYCAGLMTYRLEFG has an amyloid nucleation score of 2.49 ± 0.068. Work on FSFLGDPKNERTVSWVMGHR yielded an amyloid nucleation score of 0.478 ± 0.32. With FSFRVMRHSKKGK the amyloid nucleation score was “inactive”. With FSGHILGRPFDGRSLVCMS the amyloid nucleation score was “inactive”. Substance FSIVFGI has an amyloid nucleation score of 1.17 ± 0.15. For FSKHCYIIMYDISRSKTSIF, the amyloid nucleation score was -0.525 ± 1.1. In the case of FSMQSMSKGYVLRPLGMA, the amyloid nucleation score is reported as -0.098 ± 0.3. FSQGYWLLMA gave an amyloid nucleation score of 0.305 ± 0.23. With FSQNIVSSRVVTYKMNCNGM the amyloid nucleation score was 3.72 ± 0.044. FSRYNVCYFRVAKGNARLPF showed an amyloid nucleation score of -0.541 ± 0.76. FSVRLMAVRQGRLTAVGKSD showed an amyloid nucleation score of 0.331 ± 0.42. With FSYLAI the amyloid nucleation score was -0.896 ± 0.61. With FTCNACGYERSSVAYRNNPL the amyloid nucleation score was -0.22 ± 1.1. With FTDCHWSDLLRSFVAWYDIV the amyloid nucleation score was 0.918 ± 0.58. In the case of FTFIGGYVSYYRCIPIGILP, the amyloid nucleation score is reported as 0.33 ± 0.74. For FTLALSYITRTKSTHAC, the amyloid nucleation score was -0.27 ± 1.1. With FTLLSMNRSGFIIRVPDAV the amyloid nucleation score was 0.035 ± 0.24. For FTSLGMQLCYWHRISLCVSW, the amyloid nucleation score was -1.05 ± 0.61. FTTPVSFSFVLRLITTPRTY showed an amyloid nucleation score of -1.29 ± 0.75. With FVCGGILFLLCFLE the amyloid nucleation score was 2.56 ± 0.12. With FVFELGKWHCELFWYELCLS the amyloid nucleation score was “inactive”. FVFHWLFVSSRACILHPVVW showed an amyloid nucleation score of 0.604 ± 0.3. With FVFTLIWGHSSKLSESVSFL the amyloid nucleation score was “inactive”. FVHVPPILGAAVTVRAASPK showed an amyloid nucleation score of 0.284 ± 1.1. In the case of FVIVNN, the amyloid nucleation score is reported as -0.658 ± 1. In the case of FVKYRSLGKWVLRVTGVMVD, the amyloid nucleation score is reported as “inactive”. In the case of FVQAVDVVWFGILLKVLFRS, the amyloid nucleation score is reported as “inactive”. FVRLTRIVESGYYDIFGKIK showed an amyloid nucleation score of -0.429 ± 0.39. With FVSAHRYWCHMTLSAVMGLH the amyloid nucleation score was 3.04 ± 0.12. For FVSHYHTAHTVEMASSQLTN, the amyloid nucleation score was 0.503 ± 0.38. In the case of FVVESVKVNRSLACF, the amyloid nucleation score is reported as -0.205 ± 0.45. With FVYKTGYVSSVCYGIVVVVD the amyloid nucleation score was -0.826 ± 0.5. Substance FWCCANRSLVISLI has an amyloid nucleation score of -0.907 ± 0.4. With FWDRMGLNEEVFQGSLSSAW the amyloid nucleation score was “inactive”. Work on FWQVCPLYRSSCIGSGCCIK yielded an amyloid nucleation score of 1.78 ± 0.17. For FWRVRVFGASLFL, the amyloid nucleation score was “inactive”. With FWSSCSLEVYRGFSFAH the amyloid nucleation score was 3 ± 0.083. Work on FWSTTDILVGRTSHTGTVCV yielded an amyloid nucleation score of 0.118 ± 0.26. With FYCSNSKFW the amyloid nucleation score was 3.5 ± 0.074. FYCWTTSDMFVRTSSIESP gave an amyloid nucleation score of 1.09 ± 0.59. FYCYNFFWFL showed an amyloid nucleation score of 6.085 ± 0.033. FYEYTDTASAGPDETLYLRN showed an amyloid nucleation score of 0.022 ± 0.63. Work on FYFWVSDYQLGDMVNIMNLS yielded an amyloid nucleation score of -0.184 ± 1.1. Substance FYHRGMMWMYKWGMARYRVC has an amyloid nucleation score of 0.044 ± 0.44. In the case of FYIFPQAFRLWKSLS, the amyloid nucleation score is reported as “inactive”. FYIGFYSPGLCVRFKFFSAR gave an amyloid nucleation score of -1.85 ± 1.1. For FYKLNGKNWSRVKVPHSWLF, the amyloid nucleation score was “inactive”. Substance FYKLVAGNLANPCANRTCYL has an amyloid nucleation score of -0.031 ± 1. For FYMPLLMYVVAVRPMSGNLV, the amyloid nucleation score was -0.22 ± 1. With FYSLQFLTILLVTFMEATYP the amyloid nucleation score was -0.165 ± 0.27. For FYTDPALISHTVEIILVLLI, the amyloid nucleation score was “inactive”. In the case of FYTYDLSFMSNYSVLRVLCS, the amyloid nucleation score is reported as -1.48 ± 0.62. FYVLFGSF gave an amyloid nucleation score of -2.07 ± 0.76. In the case of FYVPSS, the amyloid nucleation score is reported as -0.158 ± 0.63. FYVVALGYKIVLCTMFYMLE gave an amyloid nucleation score of -1.16 ± 0.31. For FYVVFLNGVLLDYNDDLYGI, the amyloid nucleation score was “inactive”. For FYYCRALWVYLVTCWHCLSY, the amyloid nucleation score was -0.864 ± 1.1. For GAAFILSIYYQPSTTPPLRA, the amyloid nucleation score was 2.62 ± 0.084. Substance GAAHDSYMNRWLITWNSKCK has an amyloid nucleation score of -1.52 ± 0.76. Work on GALRGGVTRLQILRCFFYFW yielded an amyloid nucleation score of 0.491 ± 0.74. In the case of GASSF, the amyloid nucleation score is reported as “inactive”. In the case of GCGGDKKDFVISFWWEKYFR, the amyloid nucleation score is reported as -1.74 ± 0.53. GCGSNSDLLHPGIFGLCKLV gave an amyloid nucleation score of -0.3 ± 0.31. GCGVL gave an amyloid nucleation score of -0.91 ± 0.55.
